Measured values reported in patent US20180071366A1.
Numbered stars: 1 amine (or outer) side, 2 acyl side, 3 side chain; on linkers, the order of the positions; unused ones are H or OH. Bridge positions count the residues as written; N and C are the ends. Square brackets hold non-standard residues; d marks the D form. * marks the point of attachment. C20 diacid = O=C(O)CCCCCCCCCCCCCCCCCCC(=O)*; γGlu = O=C(O)[C@H](CCC(=O)[*:2])N[*:1]; Hyp = O=C(O)[C@@H]1C[C@@H](O)CN1; NMeI = CC[C@H](C)[C@H](NC)C(=O)O; Orn = NCCC[C@H](N)C(=O)O; Sar = CNCC(=O)O

Experiments:
[1] = molecular target: recombinant human calcitonin receptor (hCT-R) (human), P30988; experiment: cell-based or functional assay
[2] = molecular target: recombinant human amylin 3 receptor (hAMYR3) (human), P30988; experiment: cell-based or functional assay
Sequence of recombinant human amylin 3 receptor (hAMYR3) (human), P30988 (P30988 25-474, chain 1 of 2): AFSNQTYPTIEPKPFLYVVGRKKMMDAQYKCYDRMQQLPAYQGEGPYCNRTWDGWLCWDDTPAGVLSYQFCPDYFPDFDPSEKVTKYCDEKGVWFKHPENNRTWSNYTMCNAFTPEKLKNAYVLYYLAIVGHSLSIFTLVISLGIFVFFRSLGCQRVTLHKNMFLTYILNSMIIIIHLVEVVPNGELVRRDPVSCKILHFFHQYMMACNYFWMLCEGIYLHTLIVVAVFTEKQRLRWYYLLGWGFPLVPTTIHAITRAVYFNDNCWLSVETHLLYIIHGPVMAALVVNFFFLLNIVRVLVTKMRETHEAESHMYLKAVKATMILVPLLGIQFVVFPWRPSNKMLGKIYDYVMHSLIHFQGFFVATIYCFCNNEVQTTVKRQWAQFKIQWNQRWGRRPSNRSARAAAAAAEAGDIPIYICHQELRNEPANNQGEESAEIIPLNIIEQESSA
Sequence of recombinant human amylin 3 receptor (hAMYR3) (human), P30988 (O60896 24-148, chain 2 of 2, further chain): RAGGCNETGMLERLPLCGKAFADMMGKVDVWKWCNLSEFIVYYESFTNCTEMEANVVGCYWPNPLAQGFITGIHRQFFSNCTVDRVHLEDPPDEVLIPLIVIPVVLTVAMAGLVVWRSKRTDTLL

Sequence of recombinant human calcitonin receptor (hCT-R) (human), P30988 (P30988 25-474): as the sequence (P30988 25-474, chain 1 of 2) above

Binder	hCT-R EC50 [nM] (cAMP formation, 1321N1 cells expressing hCT-R) [1]	hAMYR3 EC50 [nM] (cAMP formation, 1321N1 cells expressing hAMYR3) [2]
{C20 diacid-γGlu}-EDGTATKATERLAHFLQRSSF[Sar]A[NMeI]LSSTEVGSNT[Hyp]-NH2 (lactam 2-7; SMILES CC[C@H](C)[C@@H](C(=O)N[C@@H](CC(C)C)C(=O)N[C@@H](CO)C(=O)N[C@@H](CO)C(=O)N[C@H](C(=O)N[C@@H](CCC(=O)O)C(=O)N[C@H](C(=O)NCC(=O)N[C@@H](CO)C(=O)N[C@@H](CC(N)=O)C(=O)N[C@H](C(=O)N1C[C@H](O)C[C@H]1C(N)=O)[C@@H](C)O)C(C)C)[C@@H](C)O)N(C)C(=O)[C@H](C)NC(=O)CN(C)C(=O)[C@H](Cc1ccccc1)NC(=O)[C@H](CO)NC(=O)[C@H](CO)NC(=O)[C@H](CCCNC(=N)N)NC(=O)[C@H](CCC(N)=O)NC(=O)[C@H](CC(C)C)NC(=O)[C@H](Cc1ccccc1)NC(=O)[C@H](Cc1c[nH]cn1)NC(=O)[C@H](C)NC(=O)[C@H](CC(C)C)NC(=O)[C@H](CCCNC(=N)N)NC(=O)[C@H](CCC(=O)O)NC(=O)[C@@H](NC(=O)[C@H](C)NC(=O)[C@@H]1CCCCNC(=O)C[C@H](NC(=O)[C@H](CCC(=O)O)NC(=O)CC[C@H](NC(=O)CCCCCCCCCCCCCCCCCCC(=O)O)C(=O)O)C(=O)NCC(=O)N[C@@H]([C@@H](C)O)C(=O)N[C@@H](C)C(=O)N[C@@H]([C@@H](C)O)C(=O)N1)[C@@H](C)O) [Compound 11]	0.068	0.024
{C20 diacid-γGlu}-RDGEATKATERLAHFLQRSSF[Sar]A[NMeI]LSSTEVGSNT[Hyp]-NH2 (lactam 2-7; SMILES CC[C@H](C)[C@@H](C(=O)N[C@@H](CC(C)C)C(=O)N[C@@H](CO)C(=O)N[C@@H](CO)C(=O)N[C@H](C(=O)N[C@@H](CCC(=O)O)C(=O)N[C@H](C(=O)NCC(=O)N[C@@H](CO)C(=O)N[C@@H](CC(N)=O)C(=O)N[C@H](C(=O)N1C[C@H](O)C[C@H]1C(N)=O)[C@@H](C)O)C(C)C)[C@@H](C)O)N(C)C(=O)[C@H](C)NC(=O)CN(C)C(=O)[C@H](Cc1ccccc1)NC(=O)[C@H](CO)NC(=O)[C@H](CO)NC(=O)[C@H](CCCNC(=N)N)NC(=O)[C@H](CCC(N)=O)NC(=O)[C@H](CC(C)C)NC(=O)[C@H](Cc1ccccc1)NC(=O)[C@H](Cc1c[nH]cn1)NC(=O)[C@H](C)NC(=O)[C@H](CC(C)C)NC(=O)[C@H](CCCNC(=N)N)NC(=O)[C@H](CCC(=O)O)NC(=O)[C@@H](NC(=O)[C@H](C)NC(=O)[C@@H]1CCCCNC(=O)C[C@H](NC(=O)[C@H](CCCNC(=N)N)NC(=O)CC[C@H](NC(=O)CCCCCCCCCCCCCCCCCCC(=O)O)C(=O)O)C(=O)NCC(=O)N[C@@H](CCC(=O)O)C(=O)N[C@@H](C)C(=O)N[C@@H]([C@@H](C)O)C(=O)N1)[C@@H](C)O) [Compound 12]	0.893	0.999
{C20 diacid-γGlu}-RDGTAT[Orn]ATERLARFLQRSSF[Sar]A[NMeI]LSSTEVGSNT[Hyp]-NH2 (lactam 2-7; SMILES CC[C@H](C)[C@@H](C(=O)N[C@@H](CC(C)C)C(=O)N[C@@H](CO)C(=O)N[C@@H](CO)C(=O)N[C@H](C(=O)N[C@@H](CCC(=O)O)C(=O)N[C@H](C(=O)NCC(=O)N[C@@H](CO)C(=O)N[C@@H](CC(N)=O)C(=O)N[C@H](C(=O)N1C[C@H](O)C[C@H]1C(N)=O)[C@@H](C)O)C(C)C)[C@@H](C)O)N(C)C(=O)[C@H](C)NC(=O)CN(C)C(=O)[C@H](Cc1ccccc1)NC(=O)[C@H](CO)NC(=O)[C@H](CO)NC(=O)[C@H](CCCNC(=N)N)NC(=O)[C@H](CCC(N)=O)NC(=O)[C@H](CC(C)C)NC(=O)[C@H](Cc1ccccc1)NC(=O)[C@H](CCCNC(=N)N)NC(=O)[C@H](C)NC(=O)[C@H](CC(C)C)NC(=O)[C@H](CCCNC(=N)N)NC(=O)[C@H](CCC(=O)O)NC(=O)[C@@H](NC(=O)[C@H](C)NC(=O)[C@@H]1CCCNC(=O)C[C@H](NC(=O)[C@H](CCCNC(=N)N)NC(=O)CC[C@H](NC(=O)CCCCCCCCCCCCCCCCCCC(=O)O)C(=O)O)C(=O)NCC(=O)N[C@@H]([C@@H](C)O)C(=O)N[C@@H](C)C(=O)N[C@@H]([C@@H](C)O)C(=O)N1)[C@@H](C)O) [Compound 10]	0.345	0.068

More lines, now with the values ahead:

hCT-R EC50 [nM] (cAMP formation, 1321N1 cells expressing hCT-R) [1]	hAMYR3 EC50 [nM] (cAMP formation, 1321N1 cells expressing hAMYR3) [2]	Binder
0.386	0.108	{C20 diacid-γGlu}-RDGTASKATERLAHFLQRSSF[Sar]A[NMeI]LSSTEVGSNT[Hyp]-NH2 (lactam 2-7; SMILES CC[C@H](C)[C@@H](C(=O)N[C@@H](CC(C)C)C(=O)N[C@@H](CO)C(=O)N[C@@H](CO)C(=O)N[C@H](C(=O)N[C@@H](CCC(=O)O)C(=O)N[C@H](C(=O)NCC(=O)N[C@@H](CO)C(=O)N[C@@H](CC(N)=O)C(=O)N[C@H](C(=O)N1C[C@H](O)C[C@H]1C(N)=O)[C@@H](C)O)C(C)C)[C@@H](C)O)N(C)C(=O)[C@H](C)NC(=O)CN(C)C(=O)[C@H](Cc1ccccc1)NC(=O)[C@H](CO)NC(=O)[C@H](CO)NC(=O)[C@H](CCCNC(=N)N)NC(=O)[C@H](CCC(N)=O)NC(=O)[C@H](CC(C)C)NC(=O)[C@H](Cc1ccccc1)NC(=O)[C@H](Cc1c[nH]cn1)NC(=O)[C@H](C)NC(=O)[C@H](CC(C)C)NC(=O)[C@H](CCCNC(=N)N)NC(=O)[C@H](CCC(=O)O)NC(=O)[C@@H](NC(=O)[C@H](C)NC(=O)[C@@H]1CCCCNC(=O)C[C@H](NC(=O)[C@H](CCCNC(=N)N)NC(=O)CC[C@H](NC(=O)CCCCCCCCCCCCCCCCCCC(=O)O)C(=O)O)C(=O)NCC(=O)N[C@@H]([C@@H](C)O)C(=O)N[C@@H](C)C(=O)N[C@@H](CO)C(=O)N1)[C@@H](C)O) [Compound 14]
1.41	0.456	{C20 diacid-γGlu}-RDGTLTKATERLAHFLQRSSF[Sar]A[NMeI]LSSTEVGSNT[Hyp]-NH2 (lactam 2-7; SMILES CC[C@H](C)[C@@H](C(=O)N[C@@H](CC(C)C)C(=O)N[C@@H](CO)C(=O)N[C@@H](CO)C(=O)N[C@H](C(=O)N[C@@H](CCC(=O)O)C(=O)N[C@H](C(=O)NCC(=O)N[C@@H](CO)C(=O)N[C@@H](CC(N)=O)C(=O)N[C@H](C(=O)N1C[C@H](O)C[C@H]1C(N)=O)[C@@H](C)O)C(C)C)[C@@H](C)O)N(C)C(=O)[C@H](C)NC(=O)CN(C)C(=O)[C@H](Cc1ccccc1)NC(=O)[C@H](CO)NC(=O)[C@H](CO)NC(=O)[C@H](CCCNC(=N)N)NC(=O)[C@H](CCC(N)=O)NC(=O)[C@H](CC(C)C)NC(=O)[C@H](Cc1ccccc1)NC(=O)[C@H](Cc1c[nH]cn1)NC(=O)[C@H](C)NC(=O)[C@H](CC(C)C)NC(=O)[C@H](CCCNC(=N)N)NC(=O)[C@H](CCC(=O)O)NC(=O)[C@@H](NC(=O)[C@H](C)NC(=O)[C@@H]1CCCCNC(=O)C[C@H](NC(=O)[C@H](CCCNC(=N)N)NC(=O)CC[C@H](NC(=O)CCCCCCCCCCCCCCCCCCC(=O)O)C(=O)O)C(=O)NCC(=O)N[C@@H]([C@@H](C)O)C(=O)N[C@@H](CC(C)C)C(=O)N[C@@H]([C@@H](C)O)C(=O)N1)[C@@H](C)O) [Compound 13]
